For one molecule, Ka and Kd results are on record in patent publication US11260101 (JINAN UNIVERSITY, dated 2022).

The target in the assay is T1, fibroblast growth factor receptor 2 (FGFR2).
T1 construct: also called membrane receptor FGFR2
In words: isothermal titration calorimetry (ITC). An excerpt: 1. Detection of the Affinity Between the Repair Peptide R1 and FGFR2 by Using the ITC Method The affinity was detected by an isothermal totration calorimetry (ITC), and the detection result was shown in FIG. 1. […] (The K denoted the affinity constant, and the Kd denoted the dissociation constant. The larger the K was and the smaller the Kd was, the stronger the affinity was).

T1 sequence (P21802 22-821): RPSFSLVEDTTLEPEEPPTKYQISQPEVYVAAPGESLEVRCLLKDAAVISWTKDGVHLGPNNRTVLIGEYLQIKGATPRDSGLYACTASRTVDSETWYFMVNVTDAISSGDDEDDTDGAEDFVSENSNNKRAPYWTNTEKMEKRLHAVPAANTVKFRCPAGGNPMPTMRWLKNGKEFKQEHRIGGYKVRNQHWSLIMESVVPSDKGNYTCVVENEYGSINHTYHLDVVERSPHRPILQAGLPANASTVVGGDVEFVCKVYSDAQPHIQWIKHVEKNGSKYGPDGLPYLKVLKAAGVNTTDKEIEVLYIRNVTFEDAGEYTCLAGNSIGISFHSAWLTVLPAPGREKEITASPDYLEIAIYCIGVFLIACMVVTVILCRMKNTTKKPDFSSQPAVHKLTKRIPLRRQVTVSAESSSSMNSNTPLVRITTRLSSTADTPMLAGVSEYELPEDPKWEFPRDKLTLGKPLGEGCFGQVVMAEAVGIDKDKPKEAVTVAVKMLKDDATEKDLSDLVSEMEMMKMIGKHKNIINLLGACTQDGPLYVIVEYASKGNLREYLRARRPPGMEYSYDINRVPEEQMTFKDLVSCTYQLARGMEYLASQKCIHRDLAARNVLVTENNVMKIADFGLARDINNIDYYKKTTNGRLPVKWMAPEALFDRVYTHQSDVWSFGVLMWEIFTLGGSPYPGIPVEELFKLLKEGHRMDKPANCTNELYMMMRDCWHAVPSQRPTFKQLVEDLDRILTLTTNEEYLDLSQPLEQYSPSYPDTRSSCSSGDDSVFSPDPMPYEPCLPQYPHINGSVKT

B1: repair peptide R1 (peptide)
peptide: GPANVET
notes: Linear 7-residue peptide made by chemical synthesis; also called R1 peptide; GPANVET
Consider B1, for which the Ka came out at 7.35e+08 M⁻¹ and the Kd (in general, the equilibrium constant for the complex coming apart) is ~1.37 nM.
